The results in this text go back to the supplement of paper PMC9112550, “Optimization of the antimicrobial peptide Bac7 by deep mutational scanning” (BMC Biology, 2022).

The test system of the data set is Escherichia coli TOP10. Kind of data set: shrunken log2 fold change of peptide-encoding DNA abundance (4.5 h post-induction vs induction); higher = less antimicrobial activity (less host growth inhibition). The following applies: time post-induction: 4.5 h; library: site-saturation at positions 5, 18, 19, 20.
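Also: peptides expressed intracellularly from a pBAD plasmid library in pooled LB shake-flask culture, induced with 0.3% L-arabinose, DNA abundance read by NGS, three biological replicates, DESeq2 with apeglm shrinkage.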

For RRIRGRPPRLPRPRPRPMMWPRP, the “shrunken log2 fold change” value was 0.412. To RRIRARPPRLPRPRPRPKDTPRP belongs 0.293; to RRIRFRPPRLPRPRPRPQFNPRP, -0.628.

Take RRIRWRPPRLPRPRPRPASYPRP: the “shrunken log2 fold change” value is 0.151. Take RRIRHRPPRLPRPRPRPPEHPRP: the “shrunken log2 fold change” value is -0.116.

With RRIRCRPPRLPRPRPRPHMPPRP, the “shrunken log2 fold change” value is -0.585. Next, RRIRVRPPRLPRPRPRPNLYPRP: -0.563. As for RRIRRRPPRLPRPRPRPPGQPRP, the “shrunken log2 fold change” value was 0.422. For RRIRHRPPRLPRPRPRPYIAPRP, the “shrunken log2 fold change” value is -0.496. To RRIRMRPPRLPRPRPRPAARPRP belongs 0.975.

In the case of RRIRQRPPRLPRPRPRPWTLPRP, the “shrunken log2 fold change” value is -0.158. To RRIRVRPPRLPRPRPRPQKIPRP belongs 0.0538; to RRIRCRPPRLPRPRPRPRWFPRP, 0.0519; to RRIRKRPPRLPRPRPRPGCMPRP, 0.993. For the sequence RRIRDRPPRLPRPRPRPYKTPRP, the “shrunken log2 fold change” value was -0.0411. In the case of RRIRQRPPRLPRPRPRPLDDPRP, the “shrunken log2 fold change” value is -0.0837. As to RRIRKRPPRLPRPRPRPCTEPRP, the “shrunken log2 fold change” value was determined as 0.0485. Take RRIRVRPPRLPRPRPRPWLLPRP: the “shrunken log2 fold change” value came to 0.208.

For the sequence RRIRGRPPRLPRPRPRPTFGPRP, the “shrunken log2 fold change” value was 0.404. To RRIRARPPRLPRPRPRPFMFPRP belongs 0.189; to RRIRVRPPRLPRPRPRPQFMPRP, -0.232; to RRIRRRPPRLPRPRPRPRDSPRP, -0.0748. To RRIRRRPPRLPRPRPRPRKEPRP belongs 0.4; to RRIRERPPRLPRPRPRPLHGPRP, -0.212. To RRIRKRPPRLPRPRPRPCWQPRP belongs 0.154. RRIRDRPPRLPRPRPRPPRGPRP: the “shrunken log2 fold change” value worked out at 1.31. To RRIRTRPPRLPRPRPRPIKMPRP belongs -0.0667; to RRIRGRPPRLPRPRPRPQESPRP, -0.0432. To RRIRIRPPRLPRPRPRPVCIPRP belongs -0.527; to RRIRIRPPRLPRPRPRPLMSPRP, -0.372; to RRIRWRPPRLPRPRPRPPKPPRP, 0.648. For RRIRYRPPRLPRPRPRPACKPRP, the “shrunken log2 fold change” value was -0.0277.

RRIRHRPPRLPRPRPRPYWQPRP: the “shrunken log2 fold change” value is -0.0678.

On to RRIRCRPPRLPRPRPRPQYDPRP, for which the “shrunken log2 fold change” value is -0.644. Turning to RRIRERPPRLPRPRPRPWADPRP, the “shrunken log2 fold change” value was -0.00088. Regarding RRIRRRPPRLPRPRPRPWNYPRP, the “shrunken log2 fold change” value is -0.242. Next, RRIRDRPPRLPRPRPRPKECPRP: 0.184; RRIRERPPRLPRPRPRPLILPRP: -0.574. To RRIRGRPPRLPRPRPRPYWDPRP belongs -0.26; to RRIRARPPRLPRPRPRPMAPPRP, 0.0991. To RRIRQRPPRLPRPRPRPGFQPRP belongs 0.00598; to RRIRKRPPRLPRPRPRPPIGPRP, 0.407. With RRIRTRPPRLPRPRPRPRAYPRP, the “shrunken log2 fold change” value is -0.339.

For the sequence RRIRGRPPRLPRPRPRPVIWPRP, the “shrunken log2 fold change” value came to 0.886. To RRIRPRPPRLPRPRPRPKGMPRP belongs 0.129. In the case of RRIRKRPPRLPRPRPRPMPSPRP, the “shrunken log2 fold change” value is 0.0546.

In the case of RRIRPRPPRLPRPRPRPIRGPRP, the “shrunken log2 fold change” value was 0.182. Take RRIRNRPPRLPRPRPRPNSHPRP: the “shrunken log2 fold change” value was -0.858. With RRIRQRPPRLPRPRPRPGSMPRP, the “shrunken log2 fold change” value was -0.174. Regarding RRIRWRPPRLPRPRPRPTTFPRP, the “shrunken log2 fold change” value was -0.09. For the sequence RRIRCRPPRLPRPRPRPETTPRP, the “shrunken log2 fold change” value worked out at 0.394.

Take RRIRTRPPRLPRPRPRPLNEPRP: the “shrunken log2 fold change” value is -0.0228. Regarding RRIRIRPPRLPRPRPRPQTYPRP, the “shrunken log2 fold change” value is -0.636. Next, RRIRARPPRLPRPRPRPPDIPRP: 0.289. Next, RRIRSRPPRLPRPRPRPRLQPRP: 0.307; RRIRVRPPRLPRPRPRPYSYPRP: 0.128.

With RRIRMRPPRLPRPRPRPHSRPRP, the “shrunken log2 fold change” value is 0.211.

For RRIRTRPPRLPRPRPRPLIPPRP, the “shrunken log2 fold change” value was -0.106. To RRIRHRPPRLPRPRPRPYLFPRP belongs -0.523; to RRIRPRPPRLPRPRPRPQKKPRP, -0.113.

As for RRIRWRPPRLPRPRPRPHAGPRP, the “shrunken log2 fold change” value was -0.0783. To RRIRFRPPRLPRPRPRPRKEPRP belongs -0.0425; to RRIRVRPPRLPRPRPRPFWDPRP, -0.0687; to RRIRSRPPRLPRPRPRPWTPPRP, -0.154. To RRIRGRPPRLPRPRPRPMDTPRP belongs 1.12; to RRIRFRPPRLPRPRPRPQYDPRP, -0.75. For RRIRQRPPRLPRPRPRPVEKPRP, the “shrunken log2 fold change” value is 0.0119. Next, RRIRFRPPRLPRPRPRPWHFPRP: -0.542; RRIRPRPPRLPRPRPRPPHAPRP: 0.589; RRIRERPPRLPRPRPRPVWVPRP: 0.0145. Take RRIRPRPPRLPRPRPRPDNMPRP: the “shrunken log2 fold change” value was -0.337. To RRIRRRPPRLPRPRPRPWAVPRP belongs -0.00967.

Take RRIRRRPPRLPRPRPRPGAAPRP: the “shrunken log2 fold change” value came to 0.866. With RRIRARPPRLPRPRPRPVFMPRP, the “shrunken log2 fold change” value was 0.0722.

With RRIRRRPPRLPRPRPRPKEHPRP, the “shrunken log2 fold change” value was determined as 0.345.

As for RRIRFRPPRLPRPRPRPSWQPRP, the “shrunken log2 fold change” value was -0.149. Next, RRIRVRPPRLPRPRPRPSSEPRP: -0.327; RRIRFRPPRLPRPRPRPVYYPRP: -1.27; RRIRCRPPRLPRPRPRPHFIPRP: -0.528.

Consider RRIRKRPPRLPRPRPRPRCPPRP, for which the “shrunken log2 fold change” value is 0.52. As to RRIRPRPPRLPRPRPRPMYLPRP, the “shrunken log2 fold change” value was -0.257.

Regarding RRIRSRPPRLPRPRPRPDGGPRP, the “shrunken log2 fold change” value was -0.125. To RRIRNRPPRLPRPRPRPPEWPRP belongs -0.188; to RRIRNRPPRLPRPRPRPVNYPRP, -0.179. Next, RRIRQRPPRLPRPRPRPDAPPRP: 0.655. To RRIRHRPPRLPRPRPRPKLPPRP belongs 0.0191. Turning to RRIRMRPPRLPRPRPRPGGCPRP, the “shrunken log2 fold change” value came to 0.888.

For the sequence RRIRQRPPRLPRPRPRPSVWPRP, the “shrunken log2 fold change” value came out at 0.128. Next, RRIRERPPRLPRPRPRPEYKPRP: -0.471; RRIRSRPPRLPRPRPRPPPFPRP: 0.449. To RRIRIRPPRLPRPRPRPINVPRP belongs -0.619.
